Results published in US8318172B2, “Breaking immunological tolerance with a genetically encoded unnatural amino acid” (The Scripps Research Institute, priority 2008, dated 2012).

B1: WT mTNFα: wild-type murine tumor necrosis factor-α expressed in E. coli (protein)
chain: MSTESMIRDVELAEEALPQKMGGFQNSRRCLCLSLFSFLLVAGATTLFCLLNFGVIGPQRDEKFPNGLPLISSMAQTLTLRSSSQNSSDKPVAHVVANHQVEEQLEWLSQRANALLANGMDLKDNQLVVPADGLYLVYSQVLFKGQGCPDYVLLTHTVSRFAISYQEKVNLLSAVKSPCPKDTPEGAELKPWYEPIYLGGVFQLEKGDQLSAEVNLPKYLDFAESGQVYFGVIAL
B2: Phe^86 mTNFα: Tyr^86 Phe mutant of mTNFα, control without NO2 group (protein)
chain: LRSSSQNSSDKPVAHVVANHQVEEQLEWLSQRANALLANGMDLKDNQLVVPADGLYLVYSQVLFKGQGCPDYVLLTHTVSRFAISFQEKVNLLSAVKSPCPKDTPEGAELKPWYEPIYLGGVFQLEKGDQLSAEVNLPKYLDFAESGQVYFGVIAL

Assays:
WT mTNFα [1] = molecular target: T1, WT mTNFα (Mus musculus, UniProt P06804); format: in vivo, mice
T1 construct: ELISAs were measured against WT mTNFα aa 1-156; His6 tag followed by factor Xa cleavage site (N, cleaved yes); made in house; host or cells: E. coli BL21(DE3)
T1 sequence (P06804 80-235): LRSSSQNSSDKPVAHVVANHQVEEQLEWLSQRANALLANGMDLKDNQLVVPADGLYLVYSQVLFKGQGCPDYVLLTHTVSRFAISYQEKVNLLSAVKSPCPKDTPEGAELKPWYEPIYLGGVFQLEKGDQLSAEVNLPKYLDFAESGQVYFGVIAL
Protocol: (§1) The plates were washed with PBST between incubations.
(§2) 30 μl of 0.5 μg/ml protein was used to coat the wells of Maxisorp 384-well plates (Nunc, Rochester, N.Y.) overnight at 4° C. After washing with PBS+0.05% Tween 20 (PBST), the coated plates were blocked with 80 μl of 1% BSA in PBS, and washed again with PBST. The plates were sequentially incubated with 20 μl of primary antibody or serum diluted in 1% BSA in PBS, 20 μl of HRP-conjugated goat anti-mouse IgG or anti-mouse IgM (Jackson ImmunoResearch Laboratories, West Grove, Pa.), and 20 μl of TMB substrate (KPL, Gaithersburg, Md.), and read at an absorbance of 650 nm. Between incubations, the plates were washed at least six times with PBST.

WT mTNFα [2] = format: in vivo, mice; conditions: C57BL/6 mice, 8 injections of 5 μg over 17 days, CFA/IFA, serum diluted 1/1000
Protocol: as §1, §2

[3] = test system: CD4+ T cells from immunized mice; assay: T cell proliferation assay; format: cell-based; conditions: Bcl-2 mice, stimulated in vitro with pNO2Phe^86 mTNFα
Protocol: For mice immunized without adjuvant, the RIMMS protocol involved 8 injections (5 μg protein/injection) over a period of 17 days. For mice immunized with adjuvant, CFA was used for the first injection and IFA for the remaining 7 injections. […] To perform the T-cell proliferation assays, CD4^+ T cells from immunized mice were isolated from lymph nodes by magnetic depletion with MACS beads (Miltenyi Biotec). T cells were then placed into culture with irradiated splenocytes from naïve Bcl-2 mice and increasing amounts of antigen. The cultures were incubated for 48 h and then pulsed with [^3H]thymidine overnight. The culture plates were harvested onto filter mats and radioactivity was quantified with a TopCount scintillation counter (PerkinElmer).
Isolation of CD4^+ T cells from the lymph nodes of immunized C57BL/6 mice was carried out by magnetic depletion with MACS beads (Miltenyi Biotec, Auburn, Calif.). T cells were then placed into culture with irradiated splenocytes from naïve C57BL/6 mice and increasing amounts of antigen. Following incubation for 48 h, the cultures were incubated with ^3H-thymidine overnight. After harvesting the culture plates onto filter mats, radioactivity was quantified with a TopCount scintillation counter (PerkinElmer, Boston, Mass.).

[4] = test system: C57BL/6 mice, lipopolysaccharide (LPS) challenge; assay: LPS challenge in TNFα-dependent severe endotoxemia mouse model; format: in vivo
[5] = test system: NFκB pathway in HEK293 cells stably expressing NFκB-Luc; conditions: NF-κB-luciferase activity analysis of mTNFα variants
Protocol: The biological activities of the proteins were assayed by measuring the mTNFα-induced activation of NFκB pathway in a NFκB-luciferase reporter cell line. […] The stable cells were dissociated with trypsin, resuspended in DMEM containing 10% FBS at 5×10^5 cells/ml, and plated at 20 μl/well in 384-well white plate (Greiner, Longwood, Fla.). After 2 hours incubation at 5% CO2 in a 37° C. tissue culture incubator, 20 μl of TNFα was added to the cells. The cells were continuously incubated for 24 hours. Luciferase activities were measured by addition of 20 μl Bright-Glo (Promega, Madison, Wis.), and the plate was read using a luminescence plate reader.
The activity of pNO2Phe mTNFα mutants was determined by an NFκB-luciferase reporter gene assay using HEK293 cells stably expressing NFκB-luciferase as described previously (Grunewald, J. et al. (2008) “Immunochemical termination of self-tolerance.” Proc Natl Acad Sci USA 105: 11276-11280).

Molecule | sustaining titers of cross-reactive anti-mTNFα antibodies (WT mTNFα [1]; one injection of pNO2Phe^86 mTNFα in CFA, then 7 injections in IFA) | serum IgG titers against pNO2Phe^86 mTNFα and WT mTNFα (WT mTNFα [2]) | CD4+ T cells specific for pNO2Phe^86 mTNFα elicited by immunization [3] | survival rate ([4]; active immunization, C57BL/6 mice, LPS 8.5 mg/kg i.p.) [%] | survival rate ([4]; passive: pooled serum (100 uL) or purified IgG (4 mg/kg) from immunized Bcl-2 mice, LPS 7.5 mg/kg) | EC50 [5] [nM] | anti-TNFα titers (WT mTNFα [1]; Bcl2 mice, presence or absence of CFA/IFA)
B1 | cannot sustain significant titers | insignificant serum IgG titers | not when mice were immunized | 12.5 | 16.7-25.0% | 0.216 | 
B2 |  |  | not when mice were immunized |  |  |  | no significant anti-TNFα titers
